Assay results: patent US20250340636A1 (Memorial Sloan Kettering, published 2025)

Legend:
[1] = target: T1, mouse L1CAM on transiently transfected HEK293FT cells (mouse, UniProt P11627 20-1260); experiment: flow cytometry, HEK293FT cells transfected with mouse L1CAM
T1 construct: whole, on cells; also called mouse L1CAM on cells

human L1CAM on cells [2] = target: T2, human L1CAM on cells (human, UniProt P32004 20-1257); experiment: flow cytometry, MDA-MB-231 cells
T2 construct: Overexpressed on stably transfected HEK293T cells or endogenous on MCF-7 and MDA-MB-231 cells; also called HEK293T-hL1CAM
Description: (§1) Binding Analysis. […] Dissociation constants (KD) for binding to soluble human and cynomolgus monkey L1CAM-His were determined using biolayer interferometry (BLI). In addition, EC50 values for binding to cell-bound L1CAM were established by flow cytometry using HEK293T/FT cells overexpressing human or mouse L1CAM, MCF-7 cells, and MDA-MB-231 cells. In addition, the epitope regions of the mAbs were determined by BLI interaction analysis with L1CAM subdomains (Ig and FN) expressed individually, and by a BLI competition experiment to identify epitope bins.

[3] = target: T3, extracellular domain of human L1CAM (isoform 1) fused to a poly-histidine tag via its carboxy terminus (human, UniProt P32004 20-1120); experiment: BLI, soluble human L1CAM-His
T3 construct: Bought (Creative Biomart); also called L1CAM-His; huL1CAM protein
Description: as §1

human L1CAM on cells [4] = target: T2, human L1CAM on cells; experiment: flow cytometry, MCF-7 cells
Description: as §1

[5] = target: T4, soluble cynomolgus monkey L1CAM, His-tagged, monomeric (cynomolgus monkey, UniProt A0A2K5URB5 20-1120); experiment: BLI, soluble cynomolgus L1CAM-His
T4 construct: also called cyL1CAM protein; cynomolgus L1CAM-His
Description: as §1

human L1CAM on cells [6] = target: T2, human L1CAM on cells; experiment: flow cytometry, HEK293T cells overexpressing human L1CAM
Description: as §1

[7] = target: T5, recombinant L1CAM-Fc fusion protein (human, UniProt P32004 20-1120); experiment: BLI, L1CAM-Fc on AHC biosensors, Fab 3-200 nM, 1:1 fit
T5 construct: also called recombinant L1CAM protein; not shown: human Fc fused to the carboxy terminus
Description: Here, recombinant L1CAM-Fc fusion protein was immobilized onto anti-Human IgG Fc Capture (AHC) biosensors and binding of Fabs was measured kinetically over a 3-200 nM concentration range. Kinetic data were fitted to a 1:1 binding model to compute association (kₒₙ) and dissociation (koff) rate constants, in addition to equilibrium dissociation constants (KD) as shown in Table 87.

[8] = target: T3, extracellular domain of human L1CAM …; experiment: BLI, soluble human L1CAM-His; off-rate below detection limit
human L1CAM on cells [9] = target: T2, human L1CAM on cells; experiment: cell-based or functional assay
human L1CAM on cells [10] = target: T2, human L1CAM on cells; experiment: FACS on cells expressing L1CAM (293FT or MDA-MB-231; the table does not say which)
Description: Briefly, CDR-grafted heavy and light chains were expressed in various combinations and the antigen-binding properties were evaluated.

T1 sequence (P11627 20-1260): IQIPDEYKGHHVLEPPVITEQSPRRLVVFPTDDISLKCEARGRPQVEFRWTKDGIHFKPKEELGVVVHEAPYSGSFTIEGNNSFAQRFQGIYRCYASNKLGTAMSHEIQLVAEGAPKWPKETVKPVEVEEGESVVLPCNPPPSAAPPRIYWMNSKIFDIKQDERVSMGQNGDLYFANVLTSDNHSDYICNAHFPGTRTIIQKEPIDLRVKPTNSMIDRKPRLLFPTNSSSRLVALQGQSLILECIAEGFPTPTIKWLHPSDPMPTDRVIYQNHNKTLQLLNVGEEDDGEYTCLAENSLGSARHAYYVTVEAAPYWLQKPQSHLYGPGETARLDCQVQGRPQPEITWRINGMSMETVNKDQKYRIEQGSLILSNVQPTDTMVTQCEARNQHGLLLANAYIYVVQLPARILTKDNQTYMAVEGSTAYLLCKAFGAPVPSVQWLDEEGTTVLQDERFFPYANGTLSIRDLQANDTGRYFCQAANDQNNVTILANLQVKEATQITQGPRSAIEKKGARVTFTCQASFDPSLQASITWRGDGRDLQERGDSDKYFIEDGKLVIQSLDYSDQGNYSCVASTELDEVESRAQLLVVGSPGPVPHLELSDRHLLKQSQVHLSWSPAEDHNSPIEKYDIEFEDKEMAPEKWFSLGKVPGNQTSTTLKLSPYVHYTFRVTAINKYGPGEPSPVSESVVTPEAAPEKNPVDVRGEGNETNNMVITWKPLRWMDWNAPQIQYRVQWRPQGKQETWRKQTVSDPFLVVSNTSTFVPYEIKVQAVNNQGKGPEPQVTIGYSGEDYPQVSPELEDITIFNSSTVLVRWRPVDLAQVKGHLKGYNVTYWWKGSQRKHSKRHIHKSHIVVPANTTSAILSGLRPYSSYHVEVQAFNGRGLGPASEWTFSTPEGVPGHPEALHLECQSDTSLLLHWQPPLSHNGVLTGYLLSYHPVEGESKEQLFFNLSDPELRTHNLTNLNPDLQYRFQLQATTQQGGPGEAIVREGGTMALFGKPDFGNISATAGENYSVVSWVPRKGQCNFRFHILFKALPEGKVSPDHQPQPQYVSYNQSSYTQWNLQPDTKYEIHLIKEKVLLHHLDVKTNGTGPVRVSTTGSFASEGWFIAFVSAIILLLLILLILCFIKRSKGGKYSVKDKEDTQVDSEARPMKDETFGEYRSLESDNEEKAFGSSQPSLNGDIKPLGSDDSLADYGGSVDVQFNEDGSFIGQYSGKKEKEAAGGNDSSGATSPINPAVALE
T2 sequence (P32004 20-1257): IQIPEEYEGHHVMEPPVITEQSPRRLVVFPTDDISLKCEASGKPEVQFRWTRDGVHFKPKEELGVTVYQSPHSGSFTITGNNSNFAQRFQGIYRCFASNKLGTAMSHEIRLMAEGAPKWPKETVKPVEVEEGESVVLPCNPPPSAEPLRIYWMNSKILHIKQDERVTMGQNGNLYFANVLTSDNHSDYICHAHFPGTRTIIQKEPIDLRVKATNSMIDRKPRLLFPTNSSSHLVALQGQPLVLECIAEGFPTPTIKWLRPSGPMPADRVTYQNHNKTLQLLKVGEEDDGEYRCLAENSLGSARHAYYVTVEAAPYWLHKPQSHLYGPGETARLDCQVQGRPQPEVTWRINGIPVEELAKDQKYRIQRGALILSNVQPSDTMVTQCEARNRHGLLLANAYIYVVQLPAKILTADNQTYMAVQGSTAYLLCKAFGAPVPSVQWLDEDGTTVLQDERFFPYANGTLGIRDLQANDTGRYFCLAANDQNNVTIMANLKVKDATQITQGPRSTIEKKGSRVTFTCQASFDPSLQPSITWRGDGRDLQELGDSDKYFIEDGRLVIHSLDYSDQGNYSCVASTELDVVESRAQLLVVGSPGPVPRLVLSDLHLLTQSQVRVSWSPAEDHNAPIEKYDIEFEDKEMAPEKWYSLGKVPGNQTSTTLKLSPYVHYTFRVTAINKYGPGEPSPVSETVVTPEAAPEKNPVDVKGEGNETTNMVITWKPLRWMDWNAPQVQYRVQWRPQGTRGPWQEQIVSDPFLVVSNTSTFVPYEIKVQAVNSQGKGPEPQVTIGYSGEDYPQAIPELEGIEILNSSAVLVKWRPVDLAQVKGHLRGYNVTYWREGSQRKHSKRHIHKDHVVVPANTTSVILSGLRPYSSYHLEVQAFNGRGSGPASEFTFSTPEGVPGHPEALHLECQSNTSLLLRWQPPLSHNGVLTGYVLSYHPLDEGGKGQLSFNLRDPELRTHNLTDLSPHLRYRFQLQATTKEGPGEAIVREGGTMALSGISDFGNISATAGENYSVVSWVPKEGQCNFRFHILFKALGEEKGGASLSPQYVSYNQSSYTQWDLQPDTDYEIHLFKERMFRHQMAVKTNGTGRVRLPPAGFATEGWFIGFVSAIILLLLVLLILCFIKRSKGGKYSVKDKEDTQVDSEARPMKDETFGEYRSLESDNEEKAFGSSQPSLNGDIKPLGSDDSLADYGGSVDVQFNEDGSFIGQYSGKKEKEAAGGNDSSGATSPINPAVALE
T5 sequence (P32004 20-1120): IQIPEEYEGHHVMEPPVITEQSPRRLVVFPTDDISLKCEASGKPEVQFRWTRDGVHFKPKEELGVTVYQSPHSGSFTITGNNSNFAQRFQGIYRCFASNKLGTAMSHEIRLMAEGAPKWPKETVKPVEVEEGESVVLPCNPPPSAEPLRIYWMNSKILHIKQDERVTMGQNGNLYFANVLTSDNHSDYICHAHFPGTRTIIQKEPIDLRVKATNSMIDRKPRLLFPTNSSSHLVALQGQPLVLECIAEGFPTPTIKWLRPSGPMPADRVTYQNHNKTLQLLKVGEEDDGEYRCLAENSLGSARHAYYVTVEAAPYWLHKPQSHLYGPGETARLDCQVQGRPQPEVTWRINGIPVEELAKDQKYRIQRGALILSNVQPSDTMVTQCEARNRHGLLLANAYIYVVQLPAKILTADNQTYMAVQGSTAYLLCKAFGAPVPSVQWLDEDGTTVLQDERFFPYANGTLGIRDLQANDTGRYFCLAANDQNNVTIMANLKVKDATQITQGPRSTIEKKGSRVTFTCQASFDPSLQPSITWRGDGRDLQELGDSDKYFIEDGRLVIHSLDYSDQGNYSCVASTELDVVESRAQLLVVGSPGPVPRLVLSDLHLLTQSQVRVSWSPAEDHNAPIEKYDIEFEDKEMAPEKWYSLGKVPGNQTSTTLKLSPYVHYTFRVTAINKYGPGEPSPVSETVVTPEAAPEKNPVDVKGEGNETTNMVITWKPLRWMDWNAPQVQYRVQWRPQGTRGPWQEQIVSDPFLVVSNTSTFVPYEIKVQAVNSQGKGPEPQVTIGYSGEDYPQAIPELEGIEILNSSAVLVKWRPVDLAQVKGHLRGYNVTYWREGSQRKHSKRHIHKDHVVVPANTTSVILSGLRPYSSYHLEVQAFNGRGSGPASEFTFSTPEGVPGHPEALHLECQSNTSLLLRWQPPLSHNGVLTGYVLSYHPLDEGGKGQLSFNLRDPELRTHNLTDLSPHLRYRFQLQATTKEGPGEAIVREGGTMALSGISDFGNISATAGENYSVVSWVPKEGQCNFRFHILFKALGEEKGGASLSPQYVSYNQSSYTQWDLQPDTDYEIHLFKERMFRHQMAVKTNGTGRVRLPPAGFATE
T3 sequence (P32004 20-1120): as above

| Binder | binding result [1] | EC50 (human L1CAM on cells [2]) [nM] | Kd [3] [nM] | EC50 (human L1CAM on cells [4]) [nM] | Kd [5] [nM] | EC50 (human L1CAM on cells [6]) [nM] | other results |
| --- | --- | --- | --- | --- | --- | --- | --- |
| 15G02 (antibody, V domains shown, mAb from AlivaMab mice, purified from hybridoma supernatant) VH: EVQLVESGGGLVQPGGSLRLSCGVSGFTFSHYWMNWVRQAPGKGLEWVANIMQDGSEKYYVDSVKGRFTISRDNAKNSLYLQMNSLRVEDTAVYYCARDRGVTTLFDYWGQGILVTVSS VL: not shown | no binding | 0.98 | 0.58 | 1 | 0.93 | 2.6 |  |
| 13F04 (antibody, V domains shown, mAb from wild-type mice, purified from the supernatant of a hybridoma clone; also called L1CAM mAb 13F04) VH: QVQLQQPGAELVKPGASVKLSCKASGYIFISYWMHWVKQRPGQGLEWIGEINPRNGRTNYNEKFKSKATLTVDKSSSTAYMQLTSLTSEDSAVYYCARGGDYGGSFDYWGQGTTLTVSS VL: DIVLTQSPASLAVSLGQRATISCRASESVDSYGNSFMHWYQQKPGQPPKLLIYRASNLESGIPARFSGSGSRTDFTLTVNPVEADDVATYYCQQSNEDPWTFGGGTKLEIK | no binding | 1.7 | 1.13 | 1.2 | 19.8 | 4 |  |
| 76H12 Fab construct 1 (chimeric; parental mouse 76H12 V-regions) (Fab, V domains shown, also called Fab 1; chimeric 76H12 Fab) VH: QVQLQQPGSDLVRPGTSVKLSCKASGYTFTSYWMHWVKQRPGQGLEWIGNVYPGSGSTKYDEKFKTKATLTVDTSSNTAYMELSSLTSEDSAVYYCTRPGNYEGFAYWGQGTLVTVSA VL: NIVLTQSPASLAVSLGQRATISCRASESVDSYGSSFMHWYQQKPGQPPKLLIYLASNLESGVPARFSGSGSRTDFTLTIDPVEADDAATYYCQQNNEDPWTFGGGTKLEIK |  |  |  |  |  |  | Kd [7]: 39.6 nM; koff [7]: 0.0232 s⁻¹; kon [7]: 586000 M⁻¹ s⁻¹ |
| 04B06 (antibody, V domains shown, mAb from AlivaMab mice (human immunoglobulin repertoire), purified from hybridoma supernatant) VH: QVQLQESGPGLVKPSETLSLTCTVSGGSINSYYWSWIRQPAGKGLEWIGRFYTSGSTNHNPSLKSRVTMSVDTSKNQFSLKLTSVTAADTAVYYCAREWSGSFYGGDAFDIWGQGTMVTVSS VL: not shown | no binding | 9.6 | 0.07 | 1.1 | 0.6 | 2.3 |  |
| 13G04 (antibody, V domains shown, mAb from AlivaMab mice, purified from hybridoma supernatant) VH: QVQLVQSGAEVKKPGASVKVSCKASGYTFIGYYLHWVRQAPGQGLEWMGWINPNSGGTNSAQKFQGRVTMTRDTSISTTYMDLSRLRSDDTAVYYCARGGLERRDAFDIWGQGTLVTVSS VL: DIQMTQSPSTLSASVGDRVTITCRASQSISNWLAWYQQKPGKAPNLLIYKASSLESGVPSRFSGSGSGTEFTLTISSLQPDDFATYYCQQYDTYRTFGQGTKVEIK | no binding | 6.7 |  | 4.8 | 3.2 | 4.8 | Kd [8]: < 0.02 nM |
| TDI-Y-005 ADC with PNU-159682 and a cleavable Glu-Val-Cit linker (antibody, human IgG1, kappa, V domains shown, ThioBridge linker-payload on the interchain disulfide cysteine; ThioBridge-Glu[-Glu(OH)-Val-Cit-PAB-DMEA-PNU159682]-PEG(24) rebridging the reduced interchain disulfide cysteines; average DAR about 4) VH: EVQMVESGGGLVQPGGSLRLSCAAPGFIFSSYNMNWVRQAPGKGLEWVSYISSSSSTTYYADSVKGRFTISRDNAKNSLYLQMNSLRDEDTAVYYCASLYSGYDYYYYYGMDVWGQGTTVTVSS VL: DIVMTQTPLSSPVSLGQPASISCRSSQSLVHSDGNTYLSWLQQRPGQPPRVLIYKISKRFSGVPDRFSGSGAGTDFTLKISRVEAEDVGVYYCMQATQFPFTFGPGTKVDIKR |  |  |  |  |  |  | EC50 of cytotoxicity, HEK293T-hL1CAM cells (CellTiterGlo, 96 hours) (human L1CAM on cells [9]): 0.03 nM; EC50 of cytotoxicity, MCF-7 cells (CellTiterGlo, 96 hours) (human L1CAM on cells [9]): 0.4 nM; EC50 of cytotoxicity, MDA-MB-231 cells (CellTiterGlo, 96 hours) (human L1CAM on cells [9]): 12.4 nM |
| hu14A10 (antibody, V domains shown) VH: EVQMVESGGGLVQPGGSLRLSCAAPGFIFSSYNMNWVRQAPGKGLEWVSYISSSSSTTYYADSVKGRFTISRDNAKNSLYLQMNSLRDEDTAVYYCASLYSGYDYYYYYGMDVWGQGTTVTVSS VL: DIVMTQTPLSSPVSLGQPASISCRSSQSLVHSDGNTYLSWLQQRPGQPPRVLIYKISKRFSGVPDRFSGSGAGTDFTLKISRVEAEDVGVYYCMQATQFPFTFGPGTKVDIK |  |  |  |  |  |  | EC50 (human L1CAM on cells [10]): 5.93 nM |
| 14A10 (antibody, V domains shown, mAb from AlivaMab mice) VH: EVQMVESGGGLVQPGGSLRLSCAAPGFIFSSYNMNWVRQAPGKGLEWVSYISSSSSTTYYADSVKGRFTISRDNAKNSLYLQMNSLRDEDTAVYYCASLYSGYDYYYYYGMDVWGQGTTVTVSS VL: DIVMTQTPLSSPVSLGQPASISCRSSQSLVHSDGNTYLSWLQQRPGQPPRVLIYKISKRFSGVPDRFSGSGAGTDFTLKISRVEAEDVGVYYCMQATQFPFTFGPGTKVDIK |  | 8.9 | 1.2 | 5.3 | 3.2 | 3.5 | EC50 [1]: 5.6 nM |
| 76H12 Fab construct 2 (humanized) (Fab, V domains shown, also called Fab 2) VH: QVQLVQSGAEVKKPGASVKVSCKASGYTFTSYWMHWVRQAPGQGLEWMGNVYPGSGSTKYAQKFQGRVTMTRDTSTSTVYMELSSLRSEDTAVYYCARPGNYEGFAYWGQGTLVTVSS VL: NIQLTQSPSSLSASVGDRVTITCRASESVDSYGSSFMHWYQQKPGKPPKLLIYLASNLESGVPSRFSGSGSGTDFTLTISSLQPEDFATYYCQQNNEDPWTFGQGTKLEIK |  |  |  |  |  |  | Kd [7]: 88.8 nM; koff [7]: 0.0706 s⁻¹; kon [7]: 797000 M⁻¹ s⁻¹ |
| 143G03 (antibody, V domains shown, mAb from wild-type mice; also called 143G03 WT; murine 143G03 mAb) VH: QVQLRQSGAELVRPGTSVKMSCKASGYTFTNYYIHWVKQRPGQGLEWIGKIGPGSGSPYYNGMFKDKATLTVDTSSSTAYMQLSSLTSEDSAVYFCARWLLPFDYWGQGTTLTVSS VL: QIVLSQSPGILSASPGEKVTMTCRASSSVNYMHWYQQKSGSSPKPWIFATSILASGVPPRFSGSGSGTSYSLTISSVEAEDTATYYCQQFSSDPLTFGAGTKLELK | no binding | 0.9 | 0.12 | 0.35 | 0.34 | 1 | EC50 (human L1CAM on cells [10]): 0.85 nM |
| Ch143G03-GF (antibody, V domains shown, read as chimeric 143G03 (murine variable regions of 143G03, human constant regions). '-GF' is not explained) VH: QVQLRQSGAELVRPGTSVKMSCKASGYTFTNYYIHWVKQRPGQGLEWIGKIGPGSGSPYYNGMFKDKATLTVDTSSSTAYMQLSSLTSEDSAVYFCARWLLPFDYWGQGTTLTVSS VL: QIVLSQSPGILSASPGEKVTMTCRASSSVNYMHWYQQKSGSSPKPWIFATSILASGVPPRFSGSGSGTSYSLTISSVEAEDTATYYCQQFSSDPLTFGAGTKLELK |  |  |  |  |  |  | EC50 (human L1CAM on cells [10]): 0.727 nM |
| TDI-Y-004 ADC with PNU-159682 and a cleavable Glu-Val-Cit linker (antibody, human IgG1, kappa, V domains shown, ThioBridge linker-payload on the interchain disulfide cysteine; ThioBridge-Glu[-Glu(OH)-Val-Cit-PAB-DMEA-PNU159682]-PEG(24) rebridging the reduced interchain disulfide cysteines; average DAR about 4) VH: QVQLVQSGAEVKKPGSSVKVSCKASGYTFTNYYIHWVRQAPGQGLEWMGKIGPGSGSPYYQGMFKDRVTITADESTSTAYMELSSLRSEDTAVYYCARWLLPFDYWGQGTLVTVSS VL: EIVLTQSPGTLSLSPGERATLSCRASSSVNYMHWYQQKPGQAPRLLIYATSILASGIPDRFSGSGSGTDYTLTISRLEPEDFAVYYCQQFSSDPLTFGGGTKVEIKR |  |  |  |  |  |  | EC50 of cytotoxicity, HEK293T-hL1CAM cells (CellTiterGlo, 96 hours) (human L1CAM on cells [9]): 0.008 nM; EC50 of cytotoxicity, MCF-7 cells (CellTiterGlo, 96 hours) (human L1CAM on cells [9]): 0.03 nM; EC50 of cytotoxicity, MDA-MB-231 cells (CellTiterGlo, 96 hours) (human L1CAM on cells [9]): 3.3 nM |
